T1: AP2-G D1 (Plasmodium falciparum, UniProt Q8I5I9 2123-2245)
T1 sequence: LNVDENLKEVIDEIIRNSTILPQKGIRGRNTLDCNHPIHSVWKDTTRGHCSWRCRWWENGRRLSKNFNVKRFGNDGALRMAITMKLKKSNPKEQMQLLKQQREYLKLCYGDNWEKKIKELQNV

B1: XGTACX_negctrl_site100 (dsDNA)
DNA 1: TTTATATTATAATATAATAATGATCTTAATTTTTTT
DNA 2: AAAAAAATTAAGATCATTATTATATTATAATATAAA
B2: XGTACX_negctrl_site404 (dsDNA)
DNA 1: ATAAAATAAATATTTTGTTATTTATTTAATCTAATA
DNA 2: TATTAGATTAAATAAATAACAAAATATTTATTTTAT
B3: XGTACX_negctrl_site397 (dsDNA)
DNA 1: TTTTTTTTCAATCTCTATATATTAAGGTTTATATTT
DNA 2: AAATATAAACCTTAATATATAGAGATTGAAAAAAAA
B4: XGTACX_negctrl_site68 (dsDNA)
DNA 1: AATATAGAAATAAATATATCACATTTGTGTTTAAAC
DNA 2: GTTTAAACACAAATGTGATATATTTATTTCTATATT
B5: XGTACX_negctrl_site8 (dsDNA)
DNA 1: TAAAACATGTTTTTATATATTATTATTATATTTATA
DNA 2: TATAAATATAATAATAATATATAAAAACATGTTTTA
B6: XGTACX_negctrl_site205 (dsDNA)
DNA 1: AACAATATATTGATATTATTTTAAGTGATTATATAT
DNA 2: ATATATAATCACTTAAAATAATATCAATATATTGTT
B7: XGTACX_negctrl_site390 (dsDNA)
DNA 1: TTATGAATATTGATGTATAAAAAAATATATATGTTA
DNA 2: TAACATATATATTTTTTTATACATCAATATTCATAA
B8: XGTACX_negctrl_site127 (dsDNA)
DNA 1: TTTTTAAAAAAATTGATTCTTTTTCTTTTTTTTCTT
DNA 2: AAGAAAAAAAAGAAAAAGAATCAATTTTTTTAAAAA
B9: XGTACX_negctrl_site18 (dsDNA)
DNA 1: TCATAAAAAGGAATCTTTAAGATATTTTATAAGCTC
DNA 2: GAGCTTATAAAATATCTTAAAGATTCCTTTTTATGA
B10: XGTACX_negctrl_site44 (dsDNA)
DNA 1: AAATTAAAATAATAATTCTACAAATTAATTTATCAT
DNA 2: ATGATAAATTAATTTGTAGAATTATTATTTTAATTT
B11: XGTACX_negctrl_site425 (dsDNA)
DNA 1: ATTTGTATATAATATATATAATTTTTTTTTTTTGTT
DNA 2: AACAAAAAAAAAAAATTATATATATTATATACAAAT
B12: XGTACX_negctrl_site442 (dsDNA)
DNA 1: TATTTTATTTCAAATCTTAATAATTGTAATTCTTCA
DNA 2: TGAAGAATTACAATTATTAAGATTTGAAATAAAATA
B13: XGTACX_negctrl_site280 (dsDNA)
DNA 1: AATTAATATATAAATAATAAAAAAAAATATATAAAC
DNA 2: GTTTATATATTTTTTTTTATTATTTATATATTAATT
B14: XGTACX_negctrl_site434 (dsDNA)
DNA 1: ATGCAACTATATATATATATTATATGTATGAATAAT
DNA 2: ATTATTCATACATATAATATATATATATAGTTGCAT
B15: XGTACX_negctrl_site344 (dsDNA)
DNA 1: TACAAAAAAATAAATAATAAAAAAAAATATATATAA
DNA 2: TTATATATATTTTTTTTTATTATTTATTTTTTTGTA
B16: XGTACX_negctrl_site431 (dsDNA)
DNA 1: TTATTAAAATATACATTTGAAAGTAATCTTATTTAA
DNA 2: TTAAATAAGATTACTTTCAAATGTATATTTTAATAA
B17: XGTACX_negctrl_site342 (dsDNA)
DNA 1: ATGAACGGAAAAATATATATAAATATATATATCATG
DNA 2: CATGATATATATATTTATATATATTTTTCCGTTCAT
B18: XGTACX_negctrl_site402 (dsDNA)
DNA 1: AAAAGAATAATAATTTATGTATATTAATTAAAGAAT
DNA 2: ATTCTTTAATTAATATACATAAATTATTATTCTTTT
B19: XGTACX_negctrl_site412 (dsDNA)
DNA 1: AAAGGAGACAGAATAAGAATAAATATTATACATATA
DNA 2: TATATGTATAATATTTATTCTTATTCTGTCTCCTTT
B20: XGTACX_negctrl_site234 (dsDNA)
DNA 1: ATTATAACTAAATAAATGATATATAATATTTTATTT
DNA 2: AAATAAAATATTATATATCATTTATTTAGTTATAAT
B21: XGTACX_negctrl_site511 (dsDNA)
DNA 1: ATGAAATCTTTAGAATATAGATGATGTTATTTAATT
DNA 2: AATTAAATAACATCATCTATATTCTAAAGATTTCAT
B22: XGTACX_site4080 (dsDNA)
DNA 1: AATACAATTGAAAATTGTACTTTGTTTTTTATAAAT
DNA 2: ATTTATAAAAAACAAAGTACAATTTTCAATTGTATT
B23: XGTACX_site611 (dsDNA)
DNA 1: TAATTTCTTATGTATTGTACAAATAATATATGATAT
DNA 2: ATATCATATATTATTTGTACAATACATAAGAAATTA
B24: XGTACX_negctrl_site84 (dsDNA)
DNA 1: TTCAAAAAATAAAATAATAATATATATATAAATATA
DNA 2: TATATTTATATATATATTATTATTTTATTTTTTGAA
B25: XGTACX_negctrl_site51 (dsDNA)
DNA 1: AAAAATAAAAAATATAAAAATATAAAAATATAAAAA
DNA 2: TTTTTATATTTTTATATTTTTATATTTTTTATTTTT
B26: XGTACX_site2716 (dsDNA)
DNA 1: AAAACTTTCCATGTTTGTACATAAAATATAATAATT
DNA 2: AATTATTATATTTTATGTACAAACATGGAAAGTTTT
B27: XGTACX_negctrl_site499 (dsDNA)
DNA 1: TTTTACTATGATATTTATATATCTATATATGTATAT
DNA 2: ATATACATATATAGATATATAAATATCATAGTAAAA
B28: XGTACX_negctrl_site185 (dsDNA)
DNA 1: AAACAACAAAAATGATATATATAAAATTTATAATAT
DNA 2: ATATTATAAATTTTATATATATCATTTTTGTTGTTT
B29: XGTACX_negctrl_site140 (dsDNA)
DNA 1: ATCTTATATCGTAGAGATTTTTTTTTTTTTTCATTT
DNA 2: AAATGAAAAAAAAAAAAAATCTCTACGATATAAGAT
B30: XGTACX_negctrl_site296 (dsDNA)
DNA 1: AATGAATTTAATTCTACTATTTTTTTTTTAAATATT
DNA 2: AATATTTAAAAAAAAAATAGTAGAATTAAATTCATT
B31: XGTACX_site7313 (dsDNA)
DNA 1: TATATACTTTATAAATGTACATATAATGTATTATTT
DNA 2: AAATAATACATTATATGTACATTTATAAAGTATATA
B32: XGTACX_negctrl_site114 (dsDNA)
DNA 1: TATTATTGTCATTTTTTTTTTTTTTTTTTCTATTTC
DNA 2: GAAATAGAAAAAAAAAAAAAAAAAATGACAATAATA
B33: XGTACX_negctrl_site606 (dsDNA)
DNA 1: TTTTTATATATATGTATAAATATTTTTTCTATTTAT
DNA 2: ATAAATAGAAAAAATATTTATACATATATATAAAAA
B34: XGTACX_negctrl_site478 (dsDNA)
DNA 1: TACATATATATAATATATATATCATCATATTTTCTT
DNA 2: AAGAAAATATGATGATATATATATTATATATATGTA
B35: XGTACX_negctrl_site79 (dsDNA)
DNA 1: TACATGTATGTAATATGTTTTATTTTTTTCATCTCT
DNA 2: AGAGATGAAAAAAATAAAACATATTACATACATGTA
B36: XGTACX_site4343 (dsDNA)
DNA 1: TTTATATACTATCAACGTACAAAAGTAATAAAAATA
DNA 2: TATTTTTATTACTTTTGTACGTTGATAGTATATAAA
B37: XGTACX_negctrl_site416 (dsDNA)
DNA 1: TATTTCAAAATAAAATAAAATATATATATATGTATA
DNA 2: TATACATATATATATATTTTATTTTATTTTGAAATA
B38: XGTACX_negctrl_site414 (dsDNA)
DNA 1: TATCTTTTTATTTTTTATTTTTTTTTTATAATTTAC
DNA 2: GTAAATTATAAAAAAAAAATAAAAAATAAAAAGATA
B39: XGTACX_negctrl_site428 (dsDNA)
DNA 1: AACAAGAAAAAAAAAAAAAAAAAAAAAAAATATTTT
DNA 2: AAAATATTTTTTTTTTTTTTTTTTTTTTTTCTTGTT
B40: XGTACX_negctrl_site375 (dsDNA)
DNA 1: AAATAAAATATATACATATATATATTATTTAGTAAT
DNA 2: ATTACTAAATAATATATATATGTATATATTTTATTT
B41: XGTACX_negctrl_site550 (dsDNA)
DNA 1: ACGTAATTAATTCATCAGATATAATTAATAATAATA
DNA 2: TATTATTATTAATTATATCTGATGAATTAATTACGT
B42: XGTACX_negctrl_site582 (dsDNA)
DNA 1: TATTAAAAGAAAAAAAAAAAAAAATTAATACATATA
DNA 2: TATATGTATTAATTTTTTTTTTTTTTTCTTTTAATA
B43: XGTACX_site8520 (dsDNA)
DNA 1: ATATGAAAAAGAACTTGTACTAAAGTGGCATATTAT
DNA 2: ATAATATGCCACTTTAGTACAAGTTCTTTTTCATAT

molecular target: T1, AP2-G D1; experiment: gcPBM; about 25 ug protein; PBS, 1% milk, 0.2 mg/ml BSA, salmon testes DNA, 0.03% Triton X-100; settings: tags: N-terminal GST (pGEX-4T-1), kept; label: surface-attached array probe

Point of comparison: B19, binding signal 9.08 ln median PBM intensity, better of two orientations. Against it:
- B1 — higher, 9.34 ln median PBM intensity, better of two orientations
- B2 — higher, 9.22 ln median PBM intensity, better of two orientations
- B3 — higher, 9.41 ln median PBM intensity, better of two orientations
- B4 — higher, 9.45 ln median PBM intensity, better of two orientations
- B5 — higher, 9.11 ln median PBM intensity, better of two orientations
- B6 — higher, 9.41 ln median PBM intensity, better of two orientations
- B7 — higher, 9.46 ln median PBM intensity, better of two orientations
- B8 — higher, 9.16 ln median PBM intensity, better of two orientations
- B9 — higher, 9.17 ln median PBM intensity, better of two orientations
- B10 — higher, 9.42 ln median PBM intensity, better of two orientations
- B11 — higher, 9.44 ln median PBM intensity, better of two orientations
- B12 — lower, 8.99 ln median PBM intensity, better of two orientations
- B13 — higher, 9.42 ln median PBM intensity, better of two orientations
- B14 — higher, 9.5 ln median PBM intensity, better of two orientations
- B15 — lower, 9.07 ln median PBM intensity, better of two orientations
- B16 — higher, 9.42 ln median PBM intensity, better of two orientations
- B17 — higher, 9.47 ln median PBM intensity, better of two orientations
- B18 — higher, 9.4 ln median PBM intensity, better of two orientations
- B20 — higher, 9.29 ln median PBM intensity, better of two orientations
- B21 — higher, 9.15 ln median PBM intensity, better of two orientations
- B22 — higher, 11.3 ln median PBM intensity, better of two orientations
- B23 — higher, 11.3 ln median PBM intensity, better of two orientations
- B24 — higher, 9.17 ln median PBM intensity, better of two orientations
- B25 — higher, 9.09 ln median PBM intensity, better of two orientations
- B26 — higher, 11.3 ln median PBM intensity, better of two orientations
- B27 — higher, 9.32 ln median PBM intensity, better of two orientations
- B28 — higher, 9.32 ln median PBM intensity, better of two orientations
- B29 — higher, 9.22 ln median PBM intensity, better of two orientations
- B30 — higher, 9.5 ln median PBM intensity, better of two orientations
- B31 — higher, 11.3 ln median PBM intensity, better of two orientations
- B32 — higher, 9.51 ln median PBM intensity, better of two orientations
- B33 — higher, 9.44 ln median PBM intensity, better of two orientations
- B34 — higher, 9.22 ln median PBM intensity, better of two orientations
- B35 — higher, 9.12 ln median PBM intensity, better of two orientations
- B36 — higher, 11.3 ln median PBM intensity, better of two orientations
- B37 — higher, 9.38 ln median PBM intensity, better of two orientations
- B38 — higher, 9.42 ln median PBM intensity, better of two orientations
- B39 — higher, 9.36 ln median PBM intensity, better of two orientations
- B40 — higher, 9.35 ln median PBM intensity, better of two orientations
- B41 — higher, 9.41 ln median PBM intensity, better of two orientations
- B42 — higher, 9.38 ln median PBM intensity, better of two orientations
- B43 — higher, 11.3 ln median PBM intensity, better of two orientations

Reference: article PMC11417369, “DNA sequence and chromatin differentiate sequence-specific transcription factor binding in the human malaria parasite Plasmodium falciparum”
